PMC11925728, “Homeodomain protein PRRX1 anchors the Ku heterodimers at DNA double-strand breaks to promote nonhomologous end-joining”

Key:
[1] = target: MBP-PRRX1A (MBP-PA) (UniProt P54821-2 1-217); assay: pull-down; EMSA: 20 mM Tris-HCl pH 7.4, 10 mM MgCl2, 2.5% glycerol, 0.05% NP-40, 0.1 ug/ul BSA, RT, 200 nM DNA; MST: 20 mM Tris-HCl pH 7.4, 150 mM NaCl, 10 mM MgCl2, 2.5%; conditions: protein: recombinant, tags: N-term MBP (pMAL-c2X)
[2] = target: His-PRRX1A (His-PA) (UniProt P54821-2 1-217); assay: MST; 10 mM Mg2+; Kd only in figure; EMSA: 20 mM Tris-HCl pH 7.4, 10 mM MgCl2, 2.5% glycerol, 0.05% NP-40, 0.1 ug/ul BSA, RT, 200 nM DNA; MST: 20 mM Tris-HCl pH 7.4, 150 mM NaCl, 10 mM MgCl2, 2.5%; conditions: protein: recombinant; tags: His (pET-28a); label: 3' 6-FAM on strand 1; blunt
Chain of His-PRRX1A (His-PA) (P54821 other isoform, or with tags, fused parts or gaps): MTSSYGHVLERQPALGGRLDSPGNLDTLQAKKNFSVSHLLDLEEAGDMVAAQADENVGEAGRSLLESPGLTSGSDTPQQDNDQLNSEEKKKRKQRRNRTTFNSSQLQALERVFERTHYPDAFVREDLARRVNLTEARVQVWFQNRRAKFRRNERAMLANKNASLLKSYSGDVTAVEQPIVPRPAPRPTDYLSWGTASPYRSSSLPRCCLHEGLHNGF

[3] = target: MBP-PA HD (UniProt P54821-2 94-153); assay: pull-down; EMSA: 20 mM Tris-HCl pH 7.4, 10 mM MgCl2, 2.5% glycerol, 0.05% NP-40, 0.1 ug/ul BSA, RT, 200 nM DNA; MST: 20 mM Tris-HCl pH 7.4, 150 mM NaCl, 10 mM MgCl2, 2.5%; conditions: protein: recombinant; tags: N-term MBP; label: 3' biotin on strand 1; blunt
Chain of MBP-PA HD (P54821 94-153): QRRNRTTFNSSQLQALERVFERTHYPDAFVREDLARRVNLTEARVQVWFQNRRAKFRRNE

[4] = target: MBP-PA NRRMut (UniProt P54821-2 1-217, N144A;R145A;R146A); assay: as above; conditions: protein: recombinant; tags: N-term MBP; label: 3' biotin on strand 1; blunt
Chain of MBP-PA NRRMut (P54821 other isoform, or with tags, fused parts or gaps N144A;R145A;R146A): as the sequence (P54821 other isoform, or with tags, fused parts or gaps) above, with N144A, R145A, R146A counted along it

[5] = target: MBP-PA R146A (UniProt P54821-2 1-217, R146A); assay: pull-down; dsDNA, blunt inferred; EMSA: 20 mM Tris-HCl pH 7.4, 10 mM MgCl2, 2.5% glycerol, 0.05% NP-40, 0.1 ug/ul BSA, RT, 200 nM DNA; MST: 20 mM Tris-HCl pH 7.4, 150 mM NaCl, 10 mM MgCl2, 2.5%; conditions: protein: recombinant, tags: N-term MBP, label: 3' biotin on strand 1
Chain of MBP-PA R146A (P54821 other isoform, or with tags, fused parts or gaps R146A | R146A R146A): as the sequence (P54821 other isoform, or with tags, fused parts or gaps) above, with R146A counted along it

Chain of MBP-PRRX1A (MBP-PA) (P54821 other isoform, or with tags, fused parts or gaps): as the sequence (P54821 other isoform, or with tags, fused parts or gaps) above

GAGCCCTCGTGTAAACAACATCTTTTTTTG (ssDNA) [ssDNA Oligo#2-S]: no binding ([1]; label: 3' biotin, single strand).

B1: MST blunt (Oligo#3-S/#1-A) (dsDNA)
DNA 1: AAGATGTTGTTTACACGAGGGCTCGAGCCCTCGTGTAAACAACATCTTTTTTTG
DNA 2: CAAAAAAAGATGTTGTTTACACGAGGGCTCGAGCCCTCGTGTAAACAACATCTT
B1: binds [2].

B2: 3' overhang DNA (Oligo#1-A/#2-S) (dsDNA)
DNA 1: B1 DNA 2
DNA 2: GAGCCCTCGTGTAAACAACATCTTTTTTTG
B2: binds ([1]; label: 3' biotin on strand 2, 3' overhang 24 nt (strand 1)).

B3: 5' overhang DNA (Oligo#1-S/#2-A) (dsDNA)
DNA 1: B1 DNA 1
DNA 2: CAAAAAAAGATGTTGTTTACACGAGGGCTC
B3: binds ([1]; label: 3' biotin on strand 1, 5' overhang 24 nt (strand 1)).

B4: blunt dsDNA 54 bp, biotinylated (Oligo#1-S/#1-A) (dsDNA)
DNA 1: B1 DNA 1
DNA 2: B1 DNA 2
B4: binds ([1]; label: 3' biotin on strand 1, blunt); no binding [3]; no binding [4]. B4: no binding [5].
